Substitutions are numbered along the chain they refer to. Ends that are not written are not given here.
T1: human GIP receptor (human, UniProt P48546 22-466)
T1 sequence (looked up): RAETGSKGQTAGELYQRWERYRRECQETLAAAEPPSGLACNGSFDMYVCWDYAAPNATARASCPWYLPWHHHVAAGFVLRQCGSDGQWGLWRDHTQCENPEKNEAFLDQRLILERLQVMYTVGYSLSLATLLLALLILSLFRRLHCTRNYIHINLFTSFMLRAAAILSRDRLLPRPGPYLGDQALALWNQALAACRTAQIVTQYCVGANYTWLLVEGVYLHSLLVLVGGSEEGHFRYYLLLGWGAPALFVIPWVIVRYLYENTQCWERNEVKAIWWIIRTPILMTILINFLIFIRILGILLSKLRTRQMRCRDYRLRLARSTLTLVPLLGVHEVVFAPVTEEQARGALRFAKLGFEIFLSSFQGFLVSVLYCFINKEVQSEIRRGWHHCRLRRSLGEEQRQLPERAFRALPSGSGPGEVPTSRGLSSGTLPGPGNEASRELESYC

T2: mouse GIP receptor (mouse, UniProt Q0P543 19-460)
T2 sequence (looked up): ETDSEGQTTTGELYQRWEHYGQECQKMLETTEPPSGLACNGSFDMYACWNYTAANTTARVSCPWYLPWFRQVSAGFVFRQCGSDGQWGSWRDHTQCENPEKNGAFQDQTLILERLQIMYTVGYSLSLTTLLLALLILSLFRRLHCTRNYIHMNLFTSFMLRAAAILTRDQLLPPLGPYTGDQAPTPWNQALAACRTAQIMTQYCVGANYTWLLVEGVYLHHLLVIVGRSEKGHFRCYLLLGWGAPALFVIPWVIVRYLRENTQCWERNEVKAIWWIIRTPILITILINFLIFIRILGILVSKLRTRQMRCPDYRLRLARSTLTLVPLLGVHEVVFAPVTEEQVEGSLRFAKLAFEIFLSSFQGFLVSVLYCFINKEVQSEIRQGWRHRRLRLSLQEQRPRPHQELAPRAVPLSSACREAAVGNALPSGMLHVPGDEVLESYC

B1: IP284 (Fc fusion)
chain: YSEGTFTSDYSKLLEEEAVRLFIEWLVKGPGGGGGGGGGGGGATHTCPPC
B2: IP234 (Fc fusion)
chain: YSEGTFTSDYSKLLEEEAVRLFIEWLVKGPGGGGGSATHTCPPCPAPEF
modifications: cysteine pairing not given here; also: fused to IgG1-TM Fc
B3: IP290 (Fc fusion)
chain: YSEGTFTSDYSKLLEEEAVRLFIEWLVKGPGGGGGGGGGGGGGGGGGGGGACPPC
B4: IP411 (Fc fusion)
chain: B3 chain with S2G
B5: IP285 (Fc fusion)
chain: YSEGTFTSDYSKLLEEEAVRLFIEWLVKGPGGGGGGGGGGGGGGGGGGGGGGGATHTCPPC
B6: IP239 (Fc fusion)
chain: YSEGTFTSDYSKLLEEEAVRLFIEWLVKGPAAAGGSGSTASSGSGSATGGGGAACPPCPAPEF
B7: IP281 (Fc fusion)
chain: YSEGTFTSDYSKLLEEEAVRLFIEWLVKGPGGGGGSGGGGSGGGGSGGGGSACPPC
B8: IP229 (Fc fusion)
chain: YSEGTFTSDYSKLLEEEAVRLFIEWLLAGAAAGGSGSTASSGSGSATGGGGAATHTCPPCPAPEF
B9: IP255 (Fc fusion)
chain: YSEGTFTSDYSKLLEEEAVRLFIEWLKNGTGGGGGSGGGGSGGGGSGGGGSATHTCPPCPAPEF
B10: IP265 (Fc fusion)
chain: B9 chain with K27V, N28K, T30P, G32K
B11: IP252 (Fc fusion)
chain: YSEGTFTSDYSKLLEEEAVRLFIEWLVKGPGGGGGSGGGGSGGGGSAESKYGPPCPPCPAPEAA
B12: IP256 (Fc fusion)
chain: YSEGTFTSDYSKLLEEEAVRLFIEWLLAGGHNITQGGGGGSGGGGSGGGGSGGGGSATHTCPPCPAPEF
B13: IP421 (Fc fusion)
chain: HGEGTFTSDLSKQMEEECVRLFIEWLKNGGPSSGAPPPGCGSGGGGSGGGGSGGGGSGGGGSGGGGSGGGGSGGGGSACPPC
B14: IP283 (Fc fusion)
chain: YSEGTFTSDYSKLLEEEAVRLFIEWLVKGPGGGGGGGATHTCPPC
B15: IP423 (Fc fusion)
chain: YSEGTHTSDLRILLEEEAVRLFIEFLLAGGGSGGGGSGGGGSGGGGSGGGGSGGGGSGGGGSGGGGSACPPC
B16: IP416 (Fc fusion)
chain: B15 chain with H6F, L10Y, R11S, I12K, F25W
B17: IP415 (Fc fusion)
chain: B15 chain with Y1H, E3Q, H6F, L10Y, R11S, I12K, L13I, F25W
B18: IP410 (Fc fusion)
chain: B15 chain with H6F, D9L, L10Y, L13H, L14K, F25K
B19: IP198 (Fc fusion)
chain: HGEGTFTSDVSSYMERQAIDEFIAWLLKGGAAAGGSGSTASSGSGSATGGGGAATHTCPPCPAPEF
B20: IP206 (Fc fusion)
chain: B19 chain with R16A, A18S, D20R, L27V, G30P, A32P, A33P
B21: IP172 (Fc fusion)
chain: HGEGTFTSDVSSYMERQAIDEFIAWLLAGAAAGGSGSTASSGSGSATGGGGAATHTCPPCPAPEF
B22: IP175 (Fc fusion)
chain: B21 chain with R16S, A18L, I19V, D20R, L27V, A28K
B23: IP214 (Fc fusion)
chain: B21 chain with R16A, A18K, L27V, A28K, A31P, A32P
B24: IP215 (Fc fusion)
chain: B21 chain with R16S, A18L, I19V, L27V, A28K
B25: IP254 (Fc fusion)
chain: YSEGTFTSDYSKLLEEEAVRLFIEWLLAGNGTGGGGSGGGGSGGGGSGGGGSATHTCPPCPAPEF
B26: IP286 (Fc fusion)
chain: YSEGTFTSDYSKLLEEEAVRLFIEWLVKGPGGGGGGGGGGGGGGGGGGGGGGGGGGGATHTCPPC
B27: IP210 (Fc fusion)
chain: YSEGTFTSDLSKLLEEEAVRLFIEWLVKGPAAAGGSGSTASSGSGSATGGGGAATHTCPPCPAPEF
B28: IP211 (Fc fusion)
chain: B27 chain with L10Y, K12S, L13Y, L14M

Target: human GLP-1 receptor (human, UniProt P43220 24-463)
Assay: cell-based or functional assay

Binder	cAMP EC50
B1	0.2 nM
B2	0.74 nM
B3	0.14 nM
B4	0.42 nM
B5	0.076 nM
B6	0.088 nM
B7	0.087 nM
B8	0.15 nM
B9	0.22 nM
B10	0.1 nM
B11	0.19 nM
B12	0.4 nM
B13	3 nM
B14	0.56 nM
B15	> 34.2 nM
B16	0.1 nM
B17	0.038 nM
B18	> 7.99 nM
B19	0.042 nM
B20	0.084 nM
B21	0.057 nM
B22	0.051 nM
B23	0.075 nM
B24	0.05 nM
B25	0.53 nM
B26	0.072 nM
B27	0.18 nM
B28	0.23 nM

Target: human glucagon receptor (human, UniProt P47871 26-477)
Assay: cell-based or functional assay

Binder	cAMP EC50
B1	18000 nM
B2	> 15000 nM
B3	> 2590 nM
B4	> 631 nM
B5	1600 nM
B6	> 990 nM
B7	3800 nM
B8	28 nM
B9	> 4600 nM
B10	> 13000 nM
B11	> 3200 nM
B12	> 420 nM
B13	> 106 nM
B14	> 17000 nM
B15	> 34.2 nM
B16	3.4 nM
B17	0.018 nM
B18	> 7.99 nM
B21	> 15000 nM
B25	160 nM
B26	920 nM

Target: T1, human GIP receptor
Assay: cell-based or functional assay

Binder	cAMP EC50	cAMP EC50, hGIPr (C3) line
B1	0.039 nM	–
B2	0.043 nM	–
B3	0.018 nM	–
B5	0.0087 nM	–
B6	0.008 nM	–
B7	0.014 nM	–
B8	0.0062 nM	–
B9	0.07 nM	–
B10	0.015 nM	–
B11	0.024 nM	–
B12	0.037 nM	–
B14	0.049 nM	–
B18	–	> 7.99 nM
B19	6.3 nM	–
B21	16 nM	–
B25	0.026 nM	–
B26	0.008 nM	–
B27	0.019 nM	–
B28	0.5 nM	–

Target: T2, mouse GIP receptor
Assay: cell-based or functional assay

Binder	cAMP EC50
B4	> 631 nM
B13	> 106 nM
B15	12 nM
B16	1.1 nM
B17	5.6 nM
